# Reference: article PMC11931385, “Structural and functional analysis of cancer-associated missense variants in the retinoblastoma protein pocket domain” (The Journal of Biological Chemistry, 2025)
# No end group written: not given here. TMR = tetramethyl rhodamine dye
# T1: Rb^P K462E (human, UniProt P06400 380-788, K462E)
# T1 construct: also called variant 8
# T1 sequence (looked up): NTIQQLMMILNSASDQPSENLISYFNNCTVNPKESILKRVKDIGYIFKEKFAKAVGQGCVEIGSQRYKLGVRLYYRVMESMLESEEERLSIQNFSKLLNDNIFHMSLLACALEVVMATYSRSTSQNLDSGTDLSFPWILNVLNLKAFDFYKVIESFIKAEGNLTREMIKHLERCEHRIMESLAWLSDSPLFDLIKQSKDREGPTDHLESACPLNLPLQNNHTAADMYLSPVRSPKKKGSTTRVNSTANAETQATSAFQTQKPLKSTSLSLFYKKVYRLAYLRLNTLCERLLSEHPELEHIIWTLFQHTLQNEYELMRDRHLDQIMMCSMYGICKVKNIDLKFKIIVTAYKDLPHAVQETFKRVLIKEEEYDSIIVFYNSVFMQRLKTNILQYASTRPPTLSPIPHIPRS
# T2: Rb^P E554K (human, UniProt P06400 380-788, E554K)
# T2 construct: also called variant 28
# T2 sequence (looked up): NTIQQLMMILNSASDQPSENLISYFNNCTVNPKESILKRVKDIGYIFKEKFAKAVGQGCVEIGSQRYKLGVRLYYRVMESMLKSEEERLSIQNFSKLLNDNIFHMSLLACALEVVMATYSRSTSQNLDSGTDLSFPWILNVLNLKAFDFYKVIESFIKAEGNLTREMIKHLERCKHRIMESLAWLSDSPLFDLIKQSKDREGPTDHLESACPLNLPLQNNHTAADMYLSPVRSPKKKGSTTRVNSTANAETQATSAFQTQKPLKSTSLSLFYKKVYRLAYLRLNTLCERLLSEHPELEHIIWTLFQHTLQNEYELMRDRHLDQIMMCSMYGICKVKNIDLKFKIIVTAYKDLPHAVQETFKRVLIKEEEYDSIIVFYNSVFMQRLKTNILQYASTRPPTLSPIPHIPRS
# T3: Rb^P M761L (human, UniProt P06400 380-788, M761L)
# T3 construct: also called variant 74
# T3 sequence (looked up): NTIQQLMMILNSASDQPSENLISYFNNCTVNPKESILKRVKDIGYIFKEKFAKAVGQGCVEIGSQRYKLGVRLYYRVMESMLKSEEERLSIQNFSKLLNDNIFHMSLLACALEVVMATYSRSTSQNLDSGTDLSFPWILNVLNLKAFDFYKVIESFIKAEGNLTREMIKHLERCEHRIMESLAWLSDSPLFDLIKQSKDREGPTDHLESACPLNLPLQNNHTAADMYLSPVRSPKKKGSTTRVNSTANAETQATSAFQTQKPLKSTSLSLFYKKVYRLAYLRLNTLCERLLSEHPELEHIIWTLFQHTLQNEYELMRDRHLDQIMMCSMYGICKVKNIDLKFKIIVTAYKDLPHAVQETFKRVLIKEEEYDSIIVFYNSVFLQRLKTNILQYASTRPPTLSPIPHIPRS
# T4: Rb^P P595L (human, UniProt P06400 380-788, P595L)
# T4 construct: also called variant 35
# T4 sequence (looked up): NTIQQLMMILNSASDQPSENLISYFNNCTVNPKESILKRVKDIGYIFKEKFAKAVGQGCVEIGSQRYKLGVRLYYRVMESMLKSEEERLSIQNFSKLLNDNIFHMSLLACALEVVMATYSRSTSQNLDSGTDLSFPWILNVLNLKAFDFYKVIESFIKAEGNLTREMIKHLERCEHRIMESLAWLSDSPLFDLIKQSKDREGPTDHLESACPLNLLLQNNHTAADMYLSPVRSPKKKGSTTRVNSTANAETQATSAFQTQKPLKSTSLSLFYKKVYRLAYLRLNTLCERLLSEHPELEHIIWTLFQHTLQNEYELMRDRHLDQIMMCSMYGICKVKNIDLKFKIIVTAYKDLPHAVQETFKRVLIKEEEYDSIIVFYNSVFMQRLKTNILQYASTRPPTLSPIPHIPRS
# T5: Rb^P E492Q (human, UniProt P06400 380-788, E492Q)
# T5 construct: also called variant 18
# T5 sequence (looked up): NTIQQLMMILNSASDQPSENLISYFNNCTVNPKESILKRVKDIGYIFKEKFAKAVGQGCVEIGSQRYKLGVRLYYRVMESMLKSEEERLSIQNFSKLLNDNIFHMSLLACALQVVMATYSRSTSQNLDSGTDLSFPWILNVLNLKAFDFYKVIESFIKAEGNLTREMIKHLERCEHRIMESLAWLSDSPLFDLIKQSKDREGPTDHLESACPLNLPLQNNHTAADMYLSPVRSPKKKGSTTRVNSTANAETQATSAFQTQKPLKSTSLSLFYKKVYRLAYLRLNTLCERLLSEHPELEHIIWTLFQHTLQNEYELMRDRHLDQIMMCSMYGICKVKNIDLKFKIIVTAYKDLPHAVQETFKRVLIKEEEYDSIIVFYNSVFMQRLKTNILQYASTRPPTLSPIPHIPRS
# Assays:
# Experiment in all cases: fluorescence polarisation; 37 °C, after the 25 °C reading ramped over 7 min to 37 °C and 2 min incubation; unlabeled Rb^P against 1.5 nM TMR-E2F1^TD or 7.5 nM TMR-E7^LxCxE; 25 mM Tris pH 8.0, 200 mM NaCl, 1 mM DTT, 0.1% Tween-20; apparent Kd
# Settings in all cases: both partners purified
# Rb^P K462E = target: T1, Rb^P K462E
# Rb^P E554K = target: T2, Rb^P E554K
# Rb^P M761L = target: T3, Rb^P M761L
# Rb^P P595L = target: T4, Rb^P P595L
# Rb^P E492Q = target: T5, Rb^P E492Q
binder,measurement,setting,value
"{TMR}-GEGIRDLFDCDFGDLTPLD (also called E2F^TD; source: synthetic peptide, bought: GenScript) [TMR-E2F1^TD, peptide of the E2F1 transactivation domain]",Kd,Rb^P K462E,67 nM
same,Kd,Rb^P E554K,3270 nM
same,Kd,Rb^P M761L,68 nM
same,Kd,Rb^P P595L,83 nM
same,Kd,Rb^P E492Q,73 nM
"DLYCYEQLN (also: TMR label, position not given here, source: synthetic peptide, bought: GenScript) [TMR-E7^LxCxE, LxCxE peptide of the E7 oncoprotein from HPV]",Kd,Rb^P K462E,32 nM
same,Kd,Rb^P E554K,48 nM
same,Kd,Rb^P M761L,5 nM
same,Kd,Rb^P P595L,32 nM
same,Kd,Rb^P E492Q,52 nM
